Reference: patent US20260250410A1 (SICHUAN HUIYU PHARMACEUTICAL, published 2026)

T1: HuCDCP1-B (human, UniProt Q9H5V8 343-667)
T1 construct: range 343-667; expressed in HEK-293T, purified by Fc/his tag; also called human CDCP1-B; membrane-proximal region of CDCP1; not shown: Fc or his tag
T1 sequence (looked up): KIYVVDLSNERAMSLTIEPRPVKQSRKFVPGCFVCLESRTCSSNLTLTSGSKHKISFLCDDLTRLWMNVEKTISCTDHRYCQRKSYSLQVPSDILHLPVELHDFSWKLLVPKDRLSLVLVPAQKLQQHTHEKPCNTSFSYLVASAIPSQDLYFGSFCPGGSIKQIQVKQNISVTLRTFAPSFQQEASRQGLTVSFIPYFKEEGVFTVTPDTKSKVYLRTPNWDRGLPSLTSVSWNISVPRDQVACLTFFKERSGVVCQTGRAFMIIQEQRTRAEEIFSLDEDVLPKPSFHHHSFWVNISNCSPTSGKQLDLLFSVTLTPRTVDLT

T2: HuCDCP1-A (human, UniProt Q9H5V8 30-430)
T2 construct: range 30-430; expressed in HEK-293T, purified by Fc/his tag; also called human CDCP1-A; membrane-distal region of CDCP1; not shown: Fc or his tag
T2 sequence (looked up): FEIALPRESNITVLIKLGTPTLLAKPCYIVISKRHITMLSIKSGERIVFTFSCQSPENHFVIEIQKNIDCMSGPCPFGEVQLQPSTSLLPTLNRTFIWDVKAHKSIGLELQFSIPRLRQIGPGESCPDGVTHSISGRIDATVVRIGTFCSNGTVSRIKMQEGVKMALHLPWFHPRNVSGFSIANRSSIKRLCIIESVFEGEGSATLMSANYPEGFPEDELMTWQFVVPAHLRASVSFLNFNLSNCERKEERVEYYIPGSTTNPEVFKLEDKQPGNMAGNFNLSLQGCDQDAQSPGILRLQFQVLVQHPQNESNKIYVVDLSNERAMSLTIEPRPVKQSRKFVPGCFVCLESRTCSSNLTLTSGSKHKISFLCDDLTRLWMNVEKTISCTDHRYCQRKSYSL


How the values were obtained:
HuCDCP1-B [1] = biological target: T1, HuCDCP1-B; assay: SPR (Caterra), antigen immobilized
Description: (§1) The humanized anti-CDCP1 antibodies obtained from Example 11 were subjected to gene cloning, constructed into pTT5 expression vector for a small amount of expression in CHO cells (Expi-CHOS: Gibco A29127), and purified with an Fc affinity column (AT Protein A Diamond Plus. No. AA402312). Antibody purity was analyzed by HPLC and determined by Nanodrop. High-throughput affinity assay was carried out for a small amount of antibodies by Caterra.
(§2) Further, Partial anti-CDCP1 humanized antibodies were selected for expression, and then the affinity of the antibodies to the antigens Hu-CDCP1-A, Hu-CDCP1-B, Cyno-CDCP1, and Ms-CDCP1 was detected according to the above affinity detection method.

HuCDCP1-A = biological target: T2, HuCDCP1-A; assay: SPR (Caterra), antigen immobilized
Description: as §1, §2

HuCDCP1-B [2] = biological target: T1, HuCDCP1-B; assay: SPR (Caterra or Biacore), antigen immobilized

| Binder | Kd (HuCDCP1-B [1]) [nM] | Kd (HuCDCP1-A) [nM] | EC50 (HuCDCP1-B [2]) [nM] |
| --- | --- | --- | --- |
| 1CP-152 (antibody, human IgG1, kappa, V domains shown, humanized 8C9, human IgG1 kappa) VH: EVQLVESGGGLVQPGRSLRLSCTTSGLTFTHYHMSWVRQAPGKGLEWVAIIRNKAYGYTTDYSASVRGRFTISRDDSKSILYLQMNSLKTEDTAVYYCVREGGYGYDGTFAYWGQGTLVTVSS VL: DIQMTQSPSSLSASVGDRVTITCRASESVDNYGISFMNWFQQKPGQAPKLLIYAASNQGSGVPSRFSGSGSGTDFTLTISSMQPEDFATYYCQQSKEVPRTFGGGTKVEIKR | 110 | 105 |  |
| 1CP-157 (antibody, human IgG1, kappa, V domains shown, humanized 8C9, human IgG1 kappa) VH: EVQLVESGGGLVQPGRSLRLSCTTSGLTFTHYHMSWVRQAPGKGPEWVAIIRNKAYGYTTDYSASVRGRFTISRDDSKSILYLQMNSLKTEDTAVYYCVREGGYGYDGTFAYWGQGTLVTVSS VL: DIQMTQSPSSLSASVGDRVTITCRASESVDNYGISFMNWFQQKPGQPPKLLIYAASNQGSGVPSRFSGSGSGTDFTLTISSMQPEDFATYYCQQSKEVPRTFGGGTKVEIKR | 359 | 226 |  |
| 1CP-124 (antibody, human IgG1, kappa, V domains shown, humanized 3C11, human IgG1 kappa) VH: QVQLVQSGAEVKKPGASVKVSCKASGYNFISYWLHWVRQAPGQGLEWMGGIYPGNTDTTYNQKFKGRVTMTRDTSTSTVYMELSSLRSEDTAVYYCIRYDYDRGMDYWGQGTLVTVSS VL: DIQMTQSPSSLSASVGDRVTITCRASEDIYYRLAWYQQKPGKAPKLLISGATALETGVPSRFSGSGSGKDYTFTISSLQPEDIATYYCQHYWNIPWTFGQGTKVEIKR | 100 | 132 |  |
| 12E6 (antibody, V domains shown, murine hybridoma mAb) VH: EVQLKESGPGILQPSQTLSLTCSFSGFSLSTSGMGVGWIRQPSGKGLEWLAHIWWDDVKLYNPALKSRLTISKETSNNQVFLKIASVDAADTATYYCARIDHGYGSNYWDFDVWGAGTTVTVSS VL: DIVMTQAAPSVPVTPGGSVSISCRSTKSLLHSDGKTYLYWFLQRPGQSPQLLIYRMSNLASGVPDRFSGSGSGTAFTLRISRVEAEDVGVYYCMQHLEYPFTFGSGTKLEIK |  |  | 1.62 |
| 1CP-117 (antibody, human IgG1, kappa, V domains shown, humanized 8E5, human IgG1 kappa) VH: QVQLVQSGSELKKPGASVKVSCKASGYTLTDFSMHWVRQAPGQGLEWMGWINTETGAPTYADDFKGRFVLSLDTSVSTAYLQISSLKAEDTAVYYCSRGRDYDPHFDYWGQGTLVTVSS VL: EIVLTQSPATLSLSPGERATLSCRASQSISDFLHWYQQKPGQSPRLLIKYASQSISGIPARFSGSGSGSDFTLTISSVEPEDFAVYYCQSAHSFPYTFGQGTKLEIKR | 182 | 76.5 |  |
| 1CP-121 (antibody, human IgG1, kappa, V domains shown, humanized 8E5, human IgG1 kappa) VH: QVQLVQSGSELKKPGASVKVSCKASGYTLTDFSMHWVRQAPGQGLEWMGWINTETGAPTYADDFKGRFVLSLDTSVSTAYLQISSLKAEDTAVYYCSRGRDYDPHFDYWGQGTLVTVSS VL: EIVLTQSPATLSLSPGERATLSCRASQSISDFLHWYQQKSGQSPRLLIKYASQSISGIPARFSGSGSGSDFTLTISSVEPEDFAVYYCQSAHSFPYTFGQGTKLEIKR | 131 | 99.8 |  |
| 3C11 (antibody, V domains shown, murine hybridoma mAb) VH: EVQLQQSGTVLARPGASVKMSCKASGYNFISYWLHWIKQRPGQGLEWIGGIYPGNTDTTYNQKFKGKAKVTAVTSATTAYMELSSLTNEDSAVYYCIRYDYDRGMDYWGQGTTVTVSS VL: DIQMTQSPSSFSVSLGDRVTITCRASEDIYYRLAWYQQKPGNAPRLLISGATALETGVPSRFSGSGSGKDYTLSITSLQTEDVATYYCQHYWNIPWTFGGGTKLEIK |  |  | 3.78 |

Further binders by falling Kd (HuCDCP1-B [1]), results first:

| Kd (HuCDCP1-B [1]) [nM] | Kd (HuCDCP1-A) [nM] | EC50 (HuCDCP1-B [2]) [nM] | Binder |
| --- | --- | --- | --- |
| 157 | 126 |  | 1CP-129 (antibody, human IgG1, kappa, V domains shown, humanized 3C11, human IgG1 kappa) VH: QVQLVQSGAEVKKPGASVKVSCKASGYNFISYWLHWVRQAPGQGLEWMGGIYPGNTDTTYNQKFKGRVTMTADTSTSTVYMELSSLRSEDTAVYYCIRYDYDRGMDYWGQGTLVTVSS VL: DIQMTQSPSSLSASVGDRVTITCRASEDIYYRLAWYQQKPGKAPKLLISGATALETGVPSRFSGSGSGKDYTLTISSLQPEDIATYYCQHYWNIPWTFGQGTKVEIKR |
| 109 | 76 |  | 1CP-128 (antibody, human IgG1, kappa, V domains shown, humanized 3C11, human IgG1 kappa) VH: QVQLVQSGAEVKKPGASVKVSCKASGYNFISYWLHWVRQAPGQGLEWMGGIYPGNTDTTYNQKFKGRVTMTRDTSTSTVYMELSSLRSEDTAVYYCIRYDYDRGMDYWGQGTLVTVSS VL: DIQMTQSPSSLSASVGDRVTITCRASEDIYYRLAWYQQKPGKAPKLLISGATALETGVPSRFSGSGSGKDYTLTISSLQPEDIATYYCQHYWNIPWTFGQGTKVEIKR |
| 55.1 | 559 |  | 1CP-125 (antibody, human IgG1, kappa, V domains shown, humanized 3C11, human IgG1 kappa) VH: QVQLVQSGAEVKKPGASVKVSCKASGYNFISYWLHWVRQAPGQGLEWMGGIYPGNTDTTYNQKFKGRVTMTADTSTSTVYMELSSLRSEDTAVYYCIRYDYDRGMDYWGQGTLVTVSS VL: DIQMTQSPSSLSASVGDRVTITCRASEDIYYRLAWYQQKPGKAPKLLISGATALETGVPSRFSGSGSGKDYTFTISSLQPEDIATYYCQHYWNIPWTFGQGTKVEIKR |
